Here are results for six molecules from US20240270846A1 (published 2024).

First the molecules themselves.
B1: CE115HA000/GLS3000 F55E one-arm antibody (antibody, human IgG1, kappa, L234A L235A, N297A, name in Kabat numbering)
heavy: QVQLVESGGGVVQPGRSLRLSCAASGFTFSNAWMHWVRQAPGKGLEWVAQIKAKSNNYATYYAESVKGRFTISRDDSKNSLYLQMNSLKTEDTAVYYCRYVHYGAYYGVDAWGQGTTVTVSSASTKGPSVFPLAPSSKSTSGGTAALGCLVKDYFPEPVTVSWNSGALTSGVHTFPAVLQSSGLYSLSSVVTVPSSSLGTQTYICNVNHKPSNTKVDKKVEPKSCDKTHTCPPCPAPEAAGGPSVFLFPPKPKDTLMISRTPEVTCVVVDVSHEDPEVKFNWYVDGVEVHNAKTKPREEQYASTYRVVSVLTVLHQDWLNGKEYKCKVSNKALPAPIEKTISKAKGQPREPQVYTLPPSRCELTKNQVSLSCAVKGFYPSDIAVEWESNGQPENNYKTTPPVLDSDGSFFLVSKLTVDKSRWQQGNVFSCSVMHEALHNHYTQKSLSLSPDYKDDDDK
chain: EPKSSDKTHTCPPCPAPELLGGPSVFLFPPKPKDTLMISRTPEVTCVVVDVSHEDPEVKFNWYVDGVEVHNAKTKPREEQYNSTYRVVSVLTVLHQDWLNGKEYKCKVSNKALPAPIEKTISKAKGQPREPQVCTLPPSRDELTKNQVSLWCLVKGFYPSDIAVEWESNGQPENNYKTTPPVLDSDGSFFLYSKLTVDKSRWQQGNVFSCSVMHEALHNRYTQKSLSLSP
light: DIVMTQSPLSLPVTPGEPASISCRSSQSLVHSNRNTYLHWYQQKPGQAPRLLIYKVSNRESGVPDRFSGSGSGTDFTLKISRVEAEDVGVYYCGQGTQVPYTFGQGTKLEIKRTVAAPSVFIFPPSDEQLKSGTASVVCLLNNFYPREAKVQWKVDNALQSGNSQESVTEQDSKDSTYSLSSTLTLSKADYEKHKVYACEVTHQGLSSPVTKSFNRGEC
notes: one-arm IgG1
B2: CE115HA000/GLS3000 F55H one-arm antibody (antibody, human IgG1, kappa, L234A L235A, N297A, name in Kabat numbering)
heavy: QVQLVESGGGVVQPGRSLRLSCAASGFTFSNAWMHWVRQAPGKGLEWVAQIKAKSNNYATYYAESVKGRFTISRDDSKNSLYLQMNSLKTEDTAVYYCRYVHYGAYYGVDAWGQGTTVTVSSASTKGPSVFPLAPSSKSTSGGTAALGCLVKDYFPEPVTVSWNSGALTSGVHTFPAVLQSSGLYSLSSVVTVPSSSLGTQTYICNVNHKPSNTKVDKKVEPKSCDKTHTCPPCPAPEAAGGPSVFLFPPKPKDTLMISRTPEVTCVVVDVSHEDPEVKFNWYVDGVEVHNAKTKPREEQYASTYRVVSVLTVLHQDWLNGKEYKCKVSNKALPAPIEKTISKAKGQPREPQVYTLPPSRCELTKNQVSLSCAVKGFYPSDIAVEWESNGQPENNYKTTPPVLDSDGSFFLVSKLTVDKSRWQQGNVFSCSVMHEALHNHYTQKSLSLSPDYKDDDDK
chain: EPKSSDKTHTCPPCPAPELLGGPSVFLFPPKPKDTLMISRTPEVTCVVVDVSHEDPEVKFNWYVDGVEVHNAKTKPREEQYNSTYRVVSVLTVLHQDWLNGKEYKCKVSNKALPAPIEKTISKAKGQPREPQVCTLPPSRDELTKNQVSLWCLVKGFYPSDIAVEWESNGQPENNYKTTPPVLDSDGSFFLYSKLTVDKSRWQQGNVFSCSVMHEALHNRYTQKSLSLSP
light: DIVMTQSPLSLPVTPGEPASISCRSSQSLVHSNRNTYLHWYQQKPGQAPRLLIYKVSNRHSGVPDRFSGSGSGTDFTLKISRVEAEDVGVYYCGQGTQVPYTFGQGTKLEIKRTVAAPSVFIFPPSDEQLKSGTASVVCLLNNFYPREAKVQWKVDNALQSGNSQESVTEQDSKDSTYSLSSTLTLSKADYEKHKVYACEVTHQGLSSPVTKSFNRGEC
notes: one-arm IgG1
B3: CE115HA000/GLS3000 F55K one-arm antibody (antibody, human IgG1, kappa, L234A L235A, N297A, name in Kabat numbering)
heavy: QVQLVESGGGVVQPGRSLRLSCAASGFTFSNAWMHWVRQAPGKGLEWVAQIKAKSNNYATYYAESVKGRFTISRDDSKNSLYLQMNSLKTEDTAVYYCRYVHYGAYYGVDAWGQGTTVTVSSASTKGPSVFPLAPSSKSTSGGTAALGCLVKDYFPEPVTVSWNSGALTSGVHTFPAVLQSSGLYSLSSVVTVPSSSLGTQTYICNVNHKPSNTKVDKKVEPKSCDKTHTCPPCPAPEAAGGPSVFLFPPKPKDTLMISRTPEVTCVVVDVSHEDPEVKFNWYVDGVEVHNAKTKPREEQYASTYRVVSVLTVLHQDWLNGKEYKCKVSNKALPAPIEKTISKAKGQPREPQVYTLPPSRCELTKNQVSLSCAVKGFYPSDIAVEWESNGQPENNYKTTPPVLDSDGSFFLVSKLTVDKSRWQQGNVFSCSVMHEALHNHYTQKSLSLSPDYKDDDDK
chain: EPKSSDKTHTCPPCPAPELLGGPSVFLFPPKPKDTLMISRTPEVTCVVVDVSHEDPEVKFNWYVDGVEVHNAKTKPREEQYNSTYRVVSVLTVLHQDWLNGKEYKCKVSNKALPAPIEKTISKAKGQPREPQVCTLPPSRDELTKNQVSLWCLVKGFYPSDIAVEWESNGQPENNYKTTPPVLDSDGSFFLYSKLTVDKSRWQQGNVFSCSVMHEALHNRYTQKSLSLSP
light: DIVMTQSPLSLPVTPGEPASISCRSSQSLVHSNRNTYLHWYQQKPGQAPRLLIYKVSNRKSGVPDRFSGSGSGTDFTLKISRVEAEDVGVYYCGQGTQVPYTFGQGTKLEIKRTVAAPSVFIFPPSDEQLKSGTASVVCLLNNFYPREAKVQWKVDNALQSGNSQESVTEQDSKDSTYSLSSTLTLSKADYEKHKVYACEVTHQGLSSPVTKSFNRGEC
notes: one-arm IgG1
B4: CE115HA000/GLS3000 F55L one-arm antibody (antibody, human IgG1, kappa, L234A L235A, N297A, name in Kabat numbering)
heavy: QVQLVESGGGVVQPGRSLRLSCAASGFTFSNAWMHWVRQAPGKGLEWVAQIKAKSNNYATYYAESVKGRFTISRDDSKNSLYLQMNSLKTEDTAVYYCRYVHYGAYYGVDAWGQGTTVTVSSASTKGPSVFPLAPSSKSTSGGTAALGCLVKDYFPEPVTVSWNSGALTSGVHTFPAVLQSSGLYSLSSVVTVPSSSLGTQTYICNVNHKPSNTKVDKKVEPKSCDKTHTCPPCPAPEAAGGPSVFLFPPKPKDTLMISRTPEVTCVVVDVSHEDPEVKFNWYVDGVEVHNAKTKPREEQYASTYRVVSVLTVLHQDWLNGKEYKCKVSNKALPAPIEKTISKAKGQPREPQVYTLPPSRCELTKNQVSLSCAVKGFYPSDIAVEWESNGQPENNYKTTPPVLDSDGSFFLVSKLTVDKSRWQQGNVFSCSVMHEALHNHYTQKSLSLSPDYKDDDDK
chain: EPKSSDKTHTCPPCPAPELLGGPSVFLFPPKPKDTLMISRTPEVTCVVVDVSHEDPEVKFNWYVDGVEVHNAKTKPREEQYNSTYRVVSVLTVLHQDWLNGKEYKCKVSNKALPAPIEKTISKAKGQPREPQVCTLPPSRDELTKNQVSLWCLVKGFYPSDIAVEWESNGQPENNYKTTPPVLDSDGSFFLYSKLTVDKSRWQQGNVFSCSVMHEALHNRYTQKSLSLSP
light: DIVMTQSPLSLPVTPGEPASISCRSSQSLVHSNRNTYLHWYQQKPGQAPRLLIYKVSNRLSGVPDRFSGSGSGTDFTLKISRVEAEDVGVYYCGQGTQVPYTFGQGTKLEIKRTVAAPSVFIFPPSDEQLKSGTASVVCLLNNFYPREAKVQWKVDNALQSGNSQESVTEQDSKDSTYSLSSTLTLSKADYEKHKVYACEVTHQGLSSPVTKSFNRGEC
notes: one-arm IgG1
B5: CE115HA000/GLS3000 F55G one-arm antibody (antibody, human IgG1, kappa, L234A L235A, N297A, name in Kabat numbering)
heavy: QVQLVESGGGVVQPGRSLRLSCAASGFTFSNAWMHWVRQAPGKGLEWVAQIKAKSNNYATYYAESVKGRFTISRDDSKNSLYLQMNSLKTEDTAVYYCRYVHYGAYYGVDAWGQGTTVTVSSASTKGPSVFPLAPSSKSTSGGTAALGCLVKDYFPEPVTVSWNSGALTSGVHTFPAVLQSSGLYSLSSVVTVPSSSLGTQTYICNVNHKPSNTKVDKKVEPKSCDKTHTCPPCPAPEAAGGPSVFLFPPKPKDTLMISRTPEVTCVVVDVSHEDPEVKFNWYVDGVEVHNAKTKPREEQYASTYRVVSVLTVLHQDWLNGKEYKCKVSNKALPAPIEKTISKAKGQPREPQVYTLPPSRCELTKNQVSLSCAVKGFYPSDIAVEWESNGQPENNYKTTPPVLDSDGSFFLVSKLTVDKSRWQQGNVFSCSVMHEALHNHYTQKSLSLSPDYKDDDDK
chain: EPKSSDKTHTCPPCPAPELLGGPSVFLFPPKPKDTLMISRTPEVTCVVVDVSHEDPEVKFNWYVDGVEVHNAKTKPREEQYNSTYRVVSVLTVLHQDWLNGKEYKCKVSNKALPAPIEKTISKAKGQPREPQVCTLPPSRDELTKNQVSLWCLVKGFYPSDIAVEWESNGQPENNYKTTPPVLDSDGSFFLYSKLTVDKSRWQQGNVFSCSVMHEALHNRYTQKSLSLSP
light: DIVMTQSPLSLPVTPGEPASISCRSSQSLVHSNRNTYLHWYQQKPGQAPRLLIYKVSNRGSGVPDRFSGSGSGTDFTLKISRVEAEDVGVYYCGQGTQVPYTFGQGTKLEIKRTVAAPSVFIFPPSDEQLKSGTASVVCLLNNFYPREAKVQWKVDNALQSGNSQESVTEQDSKDSTYSLSSTLTLSKADYEKHKVYACEVTHQGLSSPVTKSFNRGEC
notes: one-arm IgG1
B6: CE115HA000/GLS3000 F55I one-arm antibody (antibody, human IgG1, kappa, L234A L235A, N297A, name in Kabat numbering)
heavy: QVQLVESGGGVVQPGRSLRLSCAASGFTFSNAWMHWVRQAPGKGLEWVAQIKAKSNNYATYYAESVKGRFTISRDDSKNSLYLQMNSLKTEDTAVYYCRYVHYGAYYGVDAWGQGTTVTVSSASTKGPSVFPLAPSSKSTSGGTAALGCLVKDYFPEPVTVSWNSGALTSGVHTFPAVLQSSGLYSLSSVVTVPSSSLGTQTYICNVNHKPSNTKVDKKVEPKSCDKTHTCPPCPAPEAAGGPSVFLFPPKPKDTLMISRTPEVTCVVVDVSHEDPEVKFNWYVDGVEVHNAKTKPREEQYASTYRVVSVLTVLHQDWLNGKEYKCKVSNKALPAPIEKTISKAKGQPREPQVYTLPPSRCELTKNQVSLSCAVKGFYPSDIAVEWESNGQPENNYKTTPPVLDSDGSFFLVSKLTVDKSRWQQGNVFSCSVMHEALHNHYTQKSLSLSPDYKDDDDK
chain: EPKSSDKTHTCPPCPAPELLGGPSVFLFPPKPKDTLMISRTPEVTCVVVDVSHEDPEVKFNWYVDGVEVHNAKTKPREEQYNSTYRVVSVLTVLHQDWLNGKEYKCKVSNKALPAPIEKTISKAKGQPREPQVCTLPPSRDELTKNQVSLWCLVKGFYPSDIAVEWESNGQPENNYKTTPPVLDSDGSFFLYSKLTVDKSRWQQGNVFSCSVMHEALHNRYTQKSLSLSP
light: DIVMTQSPLSLPVTPGEPASISCRSSQSLVHSNRNTYLHWYQQKPGQAPRLLIYKVSNRISGVPDRFSGSGSGTDFTLKISRVEAEDVGVYYCGQGTQVPYTFGQGTKLEIKRTVAAPSVFIFPPSDEQLKSGTASVVCLLNNFYPREAKVQWKVDNALQSGNSQESVTEQDSKDSTYSLSSTLTLSKADYEKHKVYACEVTHQGLSSPVTKSFNRGEC
notes: one-arm IgG1

T1 sequence (P07766 23-126): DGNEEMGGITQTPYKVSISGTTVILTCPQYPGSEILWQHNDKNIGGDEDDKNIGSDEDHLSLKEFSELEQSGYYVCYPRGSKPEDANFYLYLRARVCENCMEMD

This assay addresses T1, CD3 epsilon homodimer protein (UniProt P07766 23-126).
T1 construct: also called CD3 (CD3 epsilon)
The assay is described as follows: SPR (Biacore T200), CD3e homodimer on CM4 chip, antibody as analyte; KD ratio vs unaltered GLS3000.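 Note: CD3 epsilon homodimer amine-coupled to the sensor surface, antibodies injected as analyte at 25 °C with HBS-EP+ running buffer.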 Background: SPR reads the build-up and loss of mass on a sensor chip optically.
For the molecule B1, the “KD ratio to GLS3000” value was found to be 0.92 ratio.

Regarding B2, the “KD ratio to GLS3000” value was 1.02 ratio. The figure for B3 is 1.22 ratio. Consider B4, for which the “KD ratio to GLS3000” value stood at 1.43 ratio. For the molecule B5, the “KD ratio to GLS3000” value was 1.15 ratio. The figure for B6 is 1.28 ratio.
